The results in this text go back to US20210069342A1 (LEGOCHEM BIOSCIENCES, published 2021).

Where a chain is given by its changes, count along the chain named.

Experiment [1] has as its target T1, human ROR2 over-expressed on CHO cells (CHO-human ROR2) (human, UniProt Q01974 34-943).
T1 construct: whole, on cells; Negative control; also called family protein human ROR2
Nature of the experiment: flow cytometry on CHO-S cells transiently over-expressing human ROR2, FITC anti-human Fc detection, MFI ratio to 2nd Ab alone. The source says:
(§1) For this experiment, using cell lines (FIG. 5 and FIG. 7, respectively) transiently (CHO-human ROR1, CHO-human ROR2, CHO-mouse ROR1) or stably (MC38-human ROR1) transfected with ROR1 gene to achieve artificial over-expression of ROR1 protein, an ROR1-expressing cell line (JeKo-1, Mino) (FIG. 6), a non ROR1-expressing cell line (MCF7) (FIG. 6) and a FACSCalibur (BD Biosciences) device was used to measure the degree to which anti-ROR1 antibody and ROR1 were bound, as follows. […] JeKo-1, Mino, CHO-human ROR1, CHO-mouse ROR1 and MC38-human ROR1 are all cell lines which express human ROR1 or mouse ROR1.
(§2) Specifically, after dissociating each cell line and washing in PBS, the number of cells was counted and adjusted to 2×10⁵ cells/200 PBS. Then the respective ROR1 monoclonal antibodies prepared in Embodiment 3 were diluted 5 times from 10 /mL or 10 /mL, then reacted for 1 hour at 4° C. After the reaction, the cells were washed in PBS, then FITC-marked constant region (Fc) specific antibody (Goat anti-human IgG FITC conjugate, Fc specific, Sigma, F9512, concentration 20 mg/ml) was suspended in 2 /1×10⁵ cells/200 PBS and reacted for 1 hour at 4° C. As for identification of the degree of expression of the transiently over-expressed human ROR1, human ROR2 and mouse ROR1, a commercially available FACS analysis antibody (anti-ROR1: R&D Systems, FAB 2000G, anti-ROR2: R&D, FAB20641P) was used. After reacting the cells were washed in PBS and analyzed using a FACSCalibur device. The negative control (2nd Ab) was only treated with FITC-marked constant region (Fc) specific antibody. The shifted readings for the respective experimental groups treated with ROR1 monoclonal antibody were compared against the shifted reading for the control group (MFI Ratio: MFI of anti-ROR1/MFI of 2nd Ab).

The target in experiment [2] is T2, human ROR1 expressed on the cell surface (human, UniProt Q01973 30-937).
T2 construct: whole, on cells; also called cell surface-expressed ROR1 antigen; ROR1 on JeKo-1, Mino, CHO-human ROR1, MC38-human ROR1 and other cancer cell lines
T2 sequence (Q01973 30-937): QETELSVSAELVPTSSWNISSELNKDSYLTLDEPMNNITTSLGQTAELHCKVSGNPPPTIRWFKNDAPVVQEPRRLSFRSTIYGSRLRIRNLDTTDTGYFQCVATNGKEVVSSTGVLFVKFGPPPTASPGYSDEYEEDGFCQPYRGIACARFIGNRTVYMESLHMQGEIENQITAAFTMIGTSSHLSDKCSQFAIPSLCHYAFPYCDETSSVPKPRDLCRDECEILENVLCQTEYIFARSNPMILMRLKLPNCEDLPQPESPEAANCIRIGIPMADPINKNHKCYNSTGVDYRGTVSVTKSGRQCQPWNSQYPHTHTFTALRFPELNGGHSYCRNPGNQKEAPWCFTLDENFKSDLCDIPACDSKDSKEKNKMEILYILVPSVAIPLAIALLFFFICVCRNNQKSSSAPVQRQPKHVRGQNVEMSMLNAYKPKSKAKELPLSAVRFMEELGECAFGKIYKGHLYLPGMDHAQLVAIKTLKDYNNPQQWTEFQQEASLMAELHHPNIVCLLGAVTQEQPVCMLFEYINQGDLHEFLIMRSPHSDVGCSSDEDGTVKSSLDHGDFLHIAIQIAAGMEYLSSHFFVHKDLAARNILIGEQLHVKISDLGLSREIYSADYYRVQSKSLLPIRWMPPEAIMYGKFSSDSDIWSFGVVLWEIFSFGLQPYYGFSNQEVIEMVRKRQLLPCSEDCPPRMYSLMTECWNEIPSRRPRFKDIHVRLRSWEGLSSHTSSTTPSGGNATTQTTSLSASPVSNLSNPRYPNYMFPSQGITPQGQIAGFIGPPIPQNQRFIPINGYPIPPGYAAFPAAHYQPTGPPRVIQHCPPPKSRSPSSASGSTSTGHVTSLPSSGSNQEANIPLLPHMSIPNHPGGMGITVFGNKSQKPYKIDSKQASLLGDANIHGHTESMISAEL
Nature of the experiment: flow cytometry on MC38-human ROR1 cells, IgG titrated, FITC anti-human Fc detection, MFI ratio to 2nd Ab alone; log axis whose first tick is printed 0.
From the text: as §1, §2

The target in experiment [3] is T3, recombinant human ROR1-His (Sino Biological, 13968-H08H) (human, UniProt Q01973 30-406).
T3 construct: extracellular domain; Bought protein; also called ROR1-HIS protein; not shown: His tag
T3 sequence (Q01973 30-406): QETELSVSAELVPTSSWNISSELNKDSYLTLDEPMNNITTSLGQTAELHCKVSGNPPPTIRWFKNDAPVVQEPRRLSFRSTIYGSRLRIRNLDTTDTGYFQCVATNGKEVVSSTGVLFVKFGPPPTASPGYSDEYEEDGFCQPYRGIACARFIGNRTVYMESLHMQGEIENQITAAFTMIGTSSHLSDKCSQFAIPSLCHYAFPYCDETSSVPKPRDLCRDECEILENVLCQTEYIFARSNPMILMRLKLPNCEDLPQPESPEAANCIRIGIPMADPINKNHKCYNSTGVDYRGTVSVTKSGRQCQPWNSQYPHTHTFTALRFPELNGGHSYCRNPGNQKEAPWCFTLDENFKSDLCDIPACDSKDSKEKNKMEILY
Nature of the experiment: BLI (Octet), ROR1-His on Anti-Penta-His or AR2G biosensor, IgG 30 to 0.021 nM, 1:1 fit. The procedure:
A 96-well black microplate (greiner bio one) was mounted on a biosensor tray case, and 200 10×KB or DW was added to each of 8 wells. Then Anti Penta His biosensors or 8 AR2G biosensors (ForteBio, USA) were inserted to hydrate for 10 minutes. 600 of the assay samples were diluted 2-fold or 3-fold to the appropriate assay concentrations, using 1×KB or 10×KB to 30 to 0.021 nM. To immobilize the antigen, recombinant human ROR1-His (Sino Biological, 13968-H08H) was diluted to 1 /ML with 10×KB or Sodium Acetate pH5 buffer. Immobilization was fixed at a threshold of 0.3 nm in the loading step. The association assay was carried out for 3 to 10 minutes, and the dissociation assay was carried out for 20 minutes. According to the Octet program template, the buffer was placed in a new 96-well black microplate according to order. As Baseline1, 200 10×KB or DW was placed. Then 200 each of 1 /mL of the antigen to be loaded, the ROR1-HIS protein, was added. As Baseline2, 200 10×KB or 1×KB was placed. Then to each well 30 to 0.021 nM of the diluted antibody and 200 each of 10×KB buffer or 1×KB corresponding to a reference blank was added. The temperature of the test plate was fixed at 30° C. After all of the samples were introduced, the equipment was started, and after the assay was completed, results were uploaded to the Octet Analysis 90 software, with KD values analyzed through 1:1 fitting. By obtaining KD values through the Octet assay method, it was confirmed that the anti-ROR1 antibody had strong binding potential to ROR1 antigen.
On the technique in general: BLI is a label-free optical method that tracks binding on a fibre tip over time.

In experiment [4] the target is T4, recombinant mouse ROR1 protein (Acrobiosystems, RO1-M5221) (mouse, UniProt Q9Z139 30-403).
T4 construct: Bought protein; also called mouse ROR1 antigen
T4 sequence (Q9Z139 30-403 limits assumed): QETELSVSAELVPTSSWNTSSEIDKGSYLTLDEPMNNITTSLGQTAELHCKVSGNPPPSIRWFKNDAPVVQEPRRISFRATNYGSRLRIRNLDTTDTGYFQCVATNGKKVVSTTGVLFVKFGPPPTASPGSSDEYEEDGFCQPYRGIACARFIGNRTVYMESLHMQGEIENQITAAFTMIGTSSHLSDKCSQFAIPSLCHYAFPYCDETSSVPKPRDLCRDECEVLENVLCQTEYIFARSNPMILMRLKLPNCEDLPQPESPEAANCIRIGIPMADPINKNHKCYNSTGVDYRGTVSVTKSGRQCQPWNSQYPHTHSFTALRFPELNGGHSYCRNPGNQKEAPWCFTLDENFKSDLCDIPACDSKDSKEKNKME
Nature of the experiment: ELISA, wells coated with recombinant mouse ROR1 protein, IgG titrated, HRP anti-Fab detection, OD (450-650nm). The method, then: (§3) Anti-ROR1 antibody antigen binding affinity was assessed using an ELISA-based solution binding assay. Specifically, a 96-well microtiter plate (Nunc-Immuno Plates), NUNC) was coated for 16 hours at 4° C. with the ROR1 protein described below at a concentration of 1 in PBS solution, and non-specific binding sites were blocked for 2 hours with 3% BSA (bovine serum albumin). Here, the ROR1 protein used was, in the case of human ROR1, the ROR1-Fc or recombinant human ROR1-His (Sino Biological, 13968-H08H) of Embodiment 1. The ROR1-His used in ELISA, as stated in the above sentence, was a protein from the Sino Biological company (13968-H08H), and the ROR1-His of Embodiment 1 or recombinant mouse ROR1 protein was used (Acrobiosystems, RO1-M5221-100 )
(§4) Subsequently, the anti-ROR1 antibodies prepared in Embodiment 3 were added at the concentrations stated in FIG. 2 to a 96-well microtiter plate, and binding capacity was analyzed using ELISA as follows. Specifically, after incubating for 2 hours, the plate was washed 5 times with PBS containing 0.05% Tween 20, then HRP-conjugated Fab multiclonal antibody reagent (Perce, 31414) was diluted to 1:10,000 and placed in the washed microtiter plate. After reacting for 1 hour at 37° C., the ROR1 antibodies bonded to the plate were detected. After the reaction, color development was performed using TMB (Tetramethylbenzidine, Sigma, T0440). The enzymatic reaction was stopped using 0.5 mol/L sulfuric acid, and absorbance at 450 nm and 650 nm was measured (450 nm-650 nm) using a micro plate reader (Molecular Device)
(ELISA stands for enzyme-linked immunosorbent assay.)

Experiment [5] concerns the target T3, recombinant human ROR1-His (Sino …). Nature of the experiment: ELISA, wells coated with human ROR1 protein (sheet: 'human ROR1'; text: ROR1-Fc or ROR1-His), IgG titrated, HRP anti-Fab detection, OD (450-650nm). The method, then: as §3, §4
For experiment [6], the target named is T5, BCMA-Fc, a recombinant protein where the extracellular domain of human BCMA protein is linked to human Fc (human, UniProt Q02223 1-54).
T5 construct: extracellular domain; Negative control in panning and ELISA; also called negative control-Fc
T5 sequence (looked up): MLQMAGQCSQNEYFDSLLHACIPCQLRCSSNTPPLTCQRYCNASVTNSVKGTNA
Nature of the experiment: ELISA, wells coated with BCMA-Fc (negative control), monoclonal scFv supernatant, anti-HA HRP detection, OD (450-650nm). The method, then:
Specifically, 100 ng per well of recombinant human ROR1-Fc prepared in Embodiment 1-1 or FBMA-Fc was placed in a 96-well microtiter plate (Nunc-Immuno Plate, NUNC, USA), which was coated overnight at 4° C. BCMA-Fc is the protein used as a negative control, a recombinant protein where the extracellular domain of human BCMA protein is linked to human Fc. 200 μL each of 3% BSA was placed in each well, and blocked for 2 hours at 37° C.
The monoclonal phage supernatant was prepared by mixing 1:1 with 3% BSA, and 100 μL each of this mixture was loaded into the wells and reacted for 2 hours at 37° C. After washing 5 times with 300 μL PBST, anti-HA HRP binding antibody was added, reacted for 1 hour at 37° C., then washed 5 times with PBST. 100 μL TMB (Tetramethylbenzidine, Sigma, T0440) was added for color development, and then 50 μL 1N H2SO₄ was added to stop the reaction. Absorbance was measured at 450 nm and 650 nm, and clones where the absorbance at 450 nm and 650 nm was […] when coated with 1 /mL ROR1 were screened (FIG. 1)

T1 sequence (Q01974 34-943): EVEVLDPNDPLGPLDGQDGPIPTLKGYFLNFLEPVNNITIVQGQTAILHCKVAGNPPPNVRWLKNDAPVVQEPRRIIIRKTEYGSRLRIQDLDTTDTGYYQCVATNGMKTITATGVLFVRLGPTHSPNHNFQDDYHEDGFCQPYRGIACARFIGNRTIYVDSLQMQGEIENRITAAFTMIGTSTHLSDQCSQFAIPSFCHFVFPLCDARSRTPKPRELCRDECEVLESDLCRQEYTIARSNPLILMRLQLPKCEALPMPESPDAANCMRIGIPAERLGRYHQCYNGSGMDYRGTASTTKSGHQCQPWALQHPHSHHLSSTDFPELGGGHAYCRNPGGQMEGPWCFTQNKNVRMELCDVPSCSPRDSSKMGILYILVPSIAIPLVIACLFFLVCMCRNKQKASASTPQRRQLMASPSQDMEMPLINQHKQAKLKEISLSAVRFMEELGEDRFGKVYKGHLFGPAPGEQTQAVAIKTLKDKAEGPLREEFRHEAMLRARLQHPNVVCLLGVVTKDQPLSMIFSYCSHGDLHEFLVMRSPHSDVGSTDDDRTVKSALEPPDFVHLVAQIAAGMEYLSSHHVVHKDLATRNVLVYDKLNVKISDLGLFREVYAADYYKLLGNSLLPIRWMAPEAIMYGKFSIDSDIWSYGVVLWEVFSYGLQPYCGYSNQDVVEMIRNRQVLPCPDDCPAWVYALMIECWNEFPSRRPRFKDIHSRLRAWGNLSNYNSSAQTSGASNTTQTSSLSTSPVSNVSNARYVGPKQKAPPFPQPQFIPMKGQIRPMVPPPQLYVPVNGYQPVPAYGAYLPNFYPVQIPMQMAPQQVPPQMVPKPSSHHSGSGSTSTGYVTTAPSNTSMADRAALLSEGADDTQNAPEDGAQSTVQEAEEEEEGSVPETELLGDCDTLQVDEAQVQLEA

B1: anti-ROR1 IgG antibody AB4 (antibody, V domains shown)
VH: EVQLLESGGGLVQPGGSLRLSCAASGFTFSSYDMSWVRQAPGKGLEWVSWISPDSGSIYYADSVKGRFTISRDNSKNTLYLQMNSLRAEDTAVYYCARPTGRFDYWGQGTLVTVSS
VL: QSVLTQPPSASGTPGQRVTISCSGSSSNIGNNNVNWYQQLPGTAPKLLIYYDNKRPSGVPDRFSGSKSGTSASLAISGLRSEDEADYYCGTWDASLSGYVFGGGTKLTVLG
notes: Full IgG form (human IgG1 constant region, lambda light chain), expressed in CHO-S cells
Regarding B1, the binding result in experiment [1] is listed as “no binding”. In addition, in experiment [2], the “EC50 (read off the curve)” value is ~100 ng/mL. In addition, in experiment [3], the Kd came to 0.0639 nM, the dissociation rate constant (koff) came to 0.000116 s⁻¹ and the on-rate (kon) was determined as 1.81e+06 M⁻¹ s⁻¹. Moreover, the 50% effective concentration (EC50 (read off the curve)) in experiment [4] was ~200 pM. In experiment [5], the “EC50 (read off the curve)” value was ~200 pM.

B2: anti-ROR1 IgG antibody DG6 (antibody, V domains shown)
VH: EVQLLESGGGLVQPGGSLRLSCAASGFTFSDYDMSWVRQAPGKGLEWVSVISPDGGSIYYADSVKGRFTISRDNSKNTLYLQMNSLRAEDTAVYYCARDVVECNMNPCSYDNAMDVWGQGTLVTVSS
VL: B1 VL with N31S, N33Y, N35S, Y51D, N53S, K54H, T91A, A94D
notes: as for B1
On to B2, for which the binding result in experiment [1] is recorded as “no binding”. In addition, in experiment [3], the Kd is 0.152 nM, the koff worked out at 0.000338 s⁻¹ and the kon was found to be 2.23e+06 M⁻¹ s⁻¹. Further, in experiment [4], the “EC50 (read off the curve)” value was ~100 pM. Besides, the “EC50 (read off the curve)” value in experiment [5] was ~100 pM.

B3: anti-ROR1 monoclonal phage antibody DG6 (soluble scFv) (scFv, V domains shown)
VH: B2 VH
VL: B1 VL with N31S, N33Y, N35S, Y51D, N53S, K54H, T91A, A94D
notes: Tested as soluble scFv in culture supernatant, detected through an HA tag
For B3, the binding result in experiment [6] is recorded as “no binding”.

B4: anti-ROR1 monoclonal phage antibody AB4 (soluble scFv) (scFv, V domains shown)
VH: B1 VH
VL: B1 VL
notes: as for B3
As to B4, the binding result in experiment [6] is given as “no binding”.

B5: anti-ROR1 monoclonal phage antibody CC9 (soluble scFv) (scFv, V domains shown)
VH: EVQLLESGGGLVQPGGSLRLSCAASGFTFSSYDMSWVRQAPGKGLEWVSGISHGSGNKYYADSVKGRFTISRDNSKNTLYLQMNSLRAEDTAVYYCAKRLSLRRRPSYYSDNAMDVWGQGTLVTVSS
VL: B1 VL with S23T, N33A, N53S, K54N, T91A, A94D
notes: as for B3
As to B5, the binding result in experiment [6] is “no binding”.

B6: anti-ROR1 monoclonal phage antibody BA6 (soluble scFv) (scFv, V domains shown)
VH: EVQLLESGGGLVQPGGSLRLSCAASGFTFSNYDMSWVRQAPGKGLEWVSAIYHSGSSKYYADSVKGRFTISRDNSKNTLYLQMNSLRAEDTAVYYCARGGNGAWDTGFDYWGQGTLVTVSS
VL: B1 VL with N31S, N33D, N35S, K54N, T91A, A94D
notes: as for B3
For B6, the binding result in experiment [6] is given as “no binding”.

B7: anti-ROR1 monoclonal phage antibody C2E3 (soluble scFv) (scFv, V domains shown)
VH: EVQLLESGGGLVQPGGSLRLSCAASGFTFSNYAMSWVRQAPGKGLEWVSSISHNSGSTYYADSVKGRFTISRDNSKNTLYLQMNSLRAEDTAVYYCAKFISARKSLGRSYSNGMDVWGQGTLVTVSS
VL: B1 VL with S23T, N31S, N33D, N35T, Y51A, N53S, A94Y
notes: as for B3
For the molecule B7, in experiment [6], the binding result was “no binding”.

B8: anti-ROR1 monoclonal phage antibody A2F2 (soluble scFv) (scFv, V domains shown)
VH: EVQLLESGGGLVQPGGSLRLSCAASGFTFSDYYMSWVRQAPGKGLEWVSSISPDGSNTYYADSVKGRFTISRDNSKNTLYLQMNSLRAEDTAVYYCAKNLRAFDYWGQGTLVTVSS
VL: B1 VL with S9P, N31S, N33T, N35Y, Y51A, D52N, N53S, K54Q, T91S, A94Y
notes: as for B3
As for B8, in experiment [6], the binding result is on record as “no binding”.

B9: anti-ROR1 monoclonal phage antibody D2B12 (soluble scFv) (scFv, V domains shown)
VH: EVQLLESGGGLVQPGGSLRLSCAASGFTFSNYDMSWVRQAPGKGLEWVSSISPSSGSSIYYADSVKGRFTISRDNSKNTLYLQMNSLRAEDTAVYYCAKAPGWCQAPSCYYDNAMDVWGQGTLVTVSS
VL: B1 VL with N33D, N35S, Y51D, N53S, K54Q, T91A, A94D
notes: as for B3
B9: the binding result in experiment [6] is recorded as “no binding”.

B10: anti-ROR1 monoclonal phage antibody A2F3 (soluble scFv) (scFv, V domains shown)
VH: B1 VH with D54G, S55G, I58K, P99V, T100N
VL: B1 VL with N35S, Y51A, N53S, K54H, G90A, A94Y
notes: as for B3
As to B10, in experiment [6], the binding result was “no binding”.

Usually EC50 (read off the curve) stands for the concentration giving half of the maximal effect. Broadly, the Kd is the equilibrium constant for the complex coming apart. Broadly, the koff is the rate constant with which the complex falls apart. In general, kon refers to the rate constant with which the complex forms.
